In patent publication US20220281975A1 (Eli Lilly, published 2022):

Columns and labels:
Cyno ECD TREM2-His [1] = target: T1, Cyno ECD TREM2-His (cynomolgus monkey); assay: SPR (Biacore), 25 C; 25 C; cynomolgus TREM2
T1 construct: also called Cyno TREM2; cynomolgus monkey TREM2
T1 chain: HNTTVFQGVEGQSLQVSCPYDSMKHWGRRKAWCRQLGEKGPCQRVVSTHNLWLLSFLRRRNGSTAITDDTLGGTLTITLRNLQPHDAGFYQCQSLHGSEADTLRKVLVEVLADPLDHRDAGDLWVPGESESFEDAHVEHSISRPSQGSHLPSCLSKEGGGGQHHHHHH

[2] = target: T2, human TREM2 expressed on BW5147.G.1.4 cells (human, UniProt Q9NZC2 19-230); assay: flow cytometry (MFI) on BW5147.G.1.4 cells expressing human TREM2 and DAP12, anti-human IgG Alexa Fluor 647 detection
T2 construct: whole, on cells; Co-expressed with the adapter DAP12; also called TREM2 expressing BW5147.G.1.4 cells
T2 sequence (looked up): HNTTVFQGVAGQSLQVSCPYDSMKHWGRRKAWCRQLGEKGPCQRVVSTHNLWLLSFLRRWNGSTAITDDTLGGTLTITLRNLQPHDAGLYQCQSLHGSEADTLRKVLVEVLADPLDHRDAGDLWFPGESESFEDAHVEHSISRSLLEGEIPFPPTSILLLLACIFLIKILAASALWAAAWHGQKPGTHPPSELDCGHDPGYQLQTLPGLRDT
Experimental: To investigate whether Antibody 1 binds to TREM2-expressing cells, a binding experiment is performed. BW5147.G.1.4 cell line is transduced to express human TREM2 and its adapter […] adapter protein 12 (DAP12). To assess binding, 500,000 cells are incubated in the presence of Antibody 1 with a 3-fold 12-point titration starting at 30 μg/ml for 30 minutes at 37° C. Antibody binding is detected using goat anti-human IgG Alexa Fluor 647 (Jackson Labs). Mean fluorescence intensity (MFI) is measured using an Accuri C6 Plus flow cytometer (BD Biosciences).

Human ECD TREM2-His [3] = target: T3, Human ECD TREM2-His (human, UniProt Q9NZC2 19-174); assay: SPR (Biacore), 25 C; 25 C; human TREM2
T3 construct: also called Human TREM2; human TREM2 extracellular domain fused to a C-terminal His tag
T3 sequence: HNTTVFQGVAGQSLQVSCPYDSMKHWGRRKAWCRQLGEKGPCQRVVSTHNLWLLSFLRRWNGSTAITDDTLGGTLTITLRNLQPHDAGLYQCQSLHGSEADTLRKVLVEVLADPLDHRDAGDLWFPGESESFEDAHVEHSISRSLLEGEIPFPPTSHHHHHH

Human TREM2 R47H [4] = target: T4, Human TREM2 R47H (human, UniProt Q9NZC2 19-174, limits assumed); assay: SPR (Biacore), 37 C, antibody captured on protein A, TREM2 R47H analyte, 1:1 model
T4 construct: also called human R47H TREM mutant; R47H TREM
T4 sequence (looked up): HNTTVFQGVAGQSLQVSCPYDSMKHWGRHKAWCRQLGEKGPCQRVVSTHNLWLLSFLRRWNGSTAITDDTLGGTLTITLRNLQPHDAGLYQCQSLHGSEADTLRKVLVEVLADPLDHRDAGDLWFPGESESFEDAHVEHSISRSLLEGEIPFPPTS

[5] = target: T2, human TREM2 expressed on BW5147.G.1.4 …; assay: cell-based or functional assay
Cyno ECD TREM2-His [6] = target: T1, Cyno ECD TREM2-His; assay: SPR (Biacore), 37 C, antibody captured on protein A, TREM2-His ECD analyte, 1:1 model
Experimental: (§1) The binding kinetics and affinity of TREM2 antibodies to human (SEQ ID NO: 11), mouse (SEQ ID NO: 12), rat (SEQ ID NO: 14), rabbit (SEQ ID NO: 13), or cynomolgus monkey (SEQ ID NO: 15) TREM2 extracellular domains (ECDs) fused to a C-terminal His tag are determined using surface plasmon resonance biosensor such as a BIAcore® T100, BIAcore® T200, or BIAcore® 8K (GE Healthcare, Piscataway, N .).
(§2) Samples are dissolved in 1xHBS-EP+running buffer (Teknova), and a protein A coupled CM5 Series S sensor chip (GE Healthcare) is utilized to capture antibody. Binding is evaluated using multiple analytical cycles. Each cycle is performed at 37° C. at a flow rate of 50 μl/min for antibody capture and 30 μl/min for ligand association and dissociation. Each cycle consists of the following: injection of 7 μl of 1 μg/ml antibody with the aim at a capture of 150-250 response units, injection of human, cynomolgus monkey, rabbit, rat, or mouse TREM2-His ECDs (starting at 20nM and using two-fold serial dilutions for each cycle) followed by 200 seconds for association, followed by 800 second dissociation phase, and regeneration using 10 mM glycine hydrochloride, pH 1.5 over a 30 second contact time. Association (i.e., kₒₙ) and dissociation rates (i.e., koff) for each cycle are evaluated using standard double referencing and fit to “1:1 (Langmuir) binding” model in the Biacore 8K evaluation in parallel kinetics batch mode. The affinity (KD) is calculated from the binding kinetics according to the relationship KD=Koff/Kₒₙ. Due to biphasic binding data for Reference Antibody A, a heterogenous ligand 2:1 binding modeling found in the Biacore 8K evaluation was used to calculate the KD. […] N=3 for Antibody 1 and Reference Antibody A, and n=1 for Reference Antibody B.

Mouse ECD TREM2-His [7] = target: T5, Mouse ECD TREM2-His (mouse, UniProt Q99NH8 19-171); assay: as above
T5 construct: also called Mouse TREM2
T5 sequence: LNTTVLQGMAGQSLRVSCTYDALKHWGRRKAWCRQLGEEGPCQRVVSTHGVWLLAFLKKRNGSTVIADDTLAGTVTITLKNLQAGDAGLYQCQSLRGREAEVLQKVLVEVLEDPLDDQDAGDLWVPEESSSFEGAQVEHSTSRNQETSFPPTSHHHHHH
Experimental: as §1, §2

Human ECD TREM2-His [8] = target: T3, Human ECD TREM2-His; assay: as above
Experimental: as §1, §2

Mouse ECD TREM2-His [9] = target: T5, Mouse ECD TREM2-His; assay: SPR (Biacore), 25 C; 25 C; mouse TREM2
Human TREM2 R47H [10] = target: T4, Human TREM2 R47H; assay: SPR (Biacore), 25 C; 25 C; human TREM2 R47H
Rabbit ECD TREM2-HIS = target: T6, Rabbit ECD TREM2-HIS (rabbit); assay: SPR (Biacore), 37 C, antibody captured on protein A, TREM2-His ECD as analyte
T6 construct: also called rabbit TREM2
T6 chain: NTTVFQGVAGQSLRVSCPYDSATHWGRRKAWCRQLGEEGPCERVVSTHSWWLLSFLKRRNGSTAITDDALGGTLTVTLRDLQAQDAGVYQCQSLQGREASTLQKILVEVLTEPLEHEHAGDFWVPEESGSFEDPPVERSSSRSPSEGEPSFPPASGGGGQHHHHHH
Experimental: as §1
(§3) Samples are dissolved in 1xHBS-EP+running buffer (Teknova), and a protein A coupled CM5 Series S sensor chip (GE Healthcare) is utilized to capture antibody. Binding is evaluated using multiple analytical cycles. Each cycle is performed at 37° C. at a flow rate of 50 μl/min for antibody capture and 30 μl/min for ligand association and dissociation. […] Association (i.e., kₒₙ) and dissociation rates (i.e., koff) for each cycle are evaluated using standard double referencing and fit to “1:1 (Langmuir) binding” model in the Biacore 8K evaluation in parallel kinetics batch mode. The affinity (KD) is calculated from the binding kinetics according to the relationship KD=Koff/Kₒₙ. […]

Rat ECD TREM2-His = target: T7, Rat ECD TREM2-His (rat); assay: as above
T7 construct: also called Rat TREM2
T7 chain: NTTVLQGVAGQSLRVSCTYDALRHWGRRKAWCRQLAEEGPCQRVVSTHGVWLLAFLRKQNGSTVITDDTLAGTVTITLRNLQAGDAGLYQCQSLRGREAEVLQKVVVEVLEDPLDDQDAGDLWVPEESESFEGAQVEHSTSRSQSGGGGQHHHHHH
Experimental: as §1, §3

- Kd (Cyno ECD TREM2-His [1]): 43 pM
- EC50 [2]: 0.08 µg/mL
- Kd (Human ECD TREM2-His [3]): 150 pM
- Kd (Human TREM2 R47H [4]): 75 pM
- koff (Human TREM2 R47H [4]): 0.00037 s⁻¹
- kon (Human TREM2 R47H [4]): 5e+06 M⁻¹ s⁻¹
- IC50 of inhibition of PS-mediated NFAT activation (luciferase reporter cells) [5]: 0.4 µg/mL
- Kd (Cyno ECD TREM2-His [6]): 75 pM
- koff (Cyno ECD TREM2-His [6]): 0.00037 s⁻¹
- kon (Cyno ECD TREM2-His [6]): 5e+06 M⁻¹ s⁻¹
- Kd (Mouse ECD TREM2-His [7]): 1600 pM
- koff (Mouse ECD TREM2-His [7]): 0.044 s⁻¹
- kon (Mouse ECD TREM2-His [7]): 2.5e+07 M⁻¹ s⁻¹
- Kd (Human ECD TREM2-His [8]): 170 pM
- koff (Human ECD TREM2-His [8]): 0.00058 s⁻¹
- kon (Human ECD TREM2-His [8]): 3.4e+06 M⁻¹ s⁻¹
- Kd (Mouse ECD TREM2-His [9]): 3900 pM
- Kd (Human TREM2 R47H [10]): 290 pM
- binding result (Rabbit ECD TREM2-HIS): no binding
- binding result (Rat ECD TREM2-His): no binding (tested: 200 nM TREM2)
B1: TREM2 Antibody 1 (antibody, human IgG4 S228P, kappa, F234A L235A, V domains shown)
VH: EVQLVQSGAEVKKPGESLKISCKGSGFSFNTYWIGWVRQMPGKGLEWMGIIYPGDQDIRYSPSFQGQVTISADKSISTAYLQWSSLKASDTAMYYCARYGRYIYGYGGYHGMDVWGQGTTVTVSS
VL: DIQMTQSPSSLSASVGDRVTITCRASQAIRDDLGWYQQKPGKAPKLLIYAASSLQSGVPSRFSGSGSGTDFTLTISSLQPEDFATYYCLQNYNYPHTFGQGTKLEIKR
notes: Human antibody with a kappa light chain
